The target of experiment [1] is T1, monovalent hVISTA-ECD (human VISTA extracellular domain with His tail) (human, UniProt Q9H7M9 33-193).
T1 construct: analyte flowed over captured antibody; also called huVISTA-His
Kind of experiment: SPR. The procedure: (§1) Binding of several preparations of each of the '029 progeny clones and of the parent '029 antibodies, formatted as IgG1.3 antibodies, to human VISTA at pH 6.0 and 7.4 was measured by Surface plasmon resonance (SPR). SPR analysis was performed to measure koff and KD binding affinity measurements for VISTA Abs at acidic and neutral pHs using a Biacore® T100 instrument (GE Healthcare). Protein A (ThermoFisher Scientific catalog #21181) was diluted to 20 ug/ml in 10 mM sodium acetate pH 4.5 and immobilized onto flow cells of a CM5 biosensor following the manufacturer's amine coupling protocol (GE Healthcare), targeting 2,000 RU immobilization density of Protein A per flow cell. SPR experiments were conducted at 37° C. using PBST (137 mM sodium chloride, 2.7 mM potassium chloride, 10 mM phosphate buffer, 0.05% Tween® 20) running buffer at pH 7.4 and 6.0. Antibodies were diluted to 25 nM in PBST pH 7.4, and were captured across active biosensor flow cells at 5 ul/min for 60 seconds. […] Two 15 second injections of 10 mM glycine pH 1.5 were used to regenerate the Protein A capture surface between assay cycles. Rate constants ka (kₒₙ) and kd (koff) were derived from reference flow cell and 0 nM blank-subtracted sensorgrams, and were fit to a 1:1 binding model in Biacore® T200 Evaluation Software v.2.0. The affinity constant, KD was calculated as the ratio of rate constants koff/kₒₙ for each VISTA antibody. […]
For orientation: Surface plasmon resonance follows binding to a sensor surface in real time, without labels.

In experiment [2] the target is T1, monovalent hVISTA-ECD (human VISTA …). Kind of experiment: SPR, pH 7.4. On the procedure:
as §1

For experiment [3] the target is unchanged. Kind of experiment: SPR. On the procedure: (§2) Binding of several preparations of each of the '029 progeny clones and of the parent '029 antibodies, formatted as IgG1.3 antibodies, to human VISTA at pH 6.0 and 7.4 was measured by Surface plasmon resonance (SPR). SPR analysis was performed to measure koff and KD binding affinity measurements for VISTA Abs at acidic and neutral pHs using a Biacore® T100 instrument (GE Healthcare). Protein A (ThermoFisher Scientific catalog #21181) was diluted to 20 ug/ml in 10 mM sodium acetate pH 4.5 and immobilized onto flow cells of a CM5 biosensor following the manufacturer's amine coupling protocol (GE Healthcare), targeting 2,000 RU immobilization density of Protein A per flow cell. SPR experiments were conducted at 37° C. using PBST (137 mM sodium chloride, 2.7 mM potassium chloride, 10 mM phosphate buffer, 0.05% Tween® 20) running buffer at pH 7.4 and 6.0. Antibodies were diluted to 25 nM in PBST pH 7.4, and were captured across active biosensor flow cells at 5 ul/min for 60 seconds. […] Two 15 second injections of 10 mM glycine pH 1.5 were used to regenerate the Protein A capture surface between assay cycles. Rate constants ka (kₒₙ) and kd (koff) were derived from reference flow cell and 0 nM blank-subtracted sensorgrams, and were fit to a 1:1 binding model in Biacore® T200 Evaluation Software v.2.0. The affinity constant, KD was calculated as the ratio of rate constants koff/kₒₙ for each VISTA antibody.
The source holds these as a separate data set.

Experiment [4] has the same target. Kind of experiment: SPR, pH 6.0. On the procedure: as §1
For experiment [5] the target is unchanged. Kind of experiment: SPR, pH 7.4. On the procedure: as §2
This is another data set of the same source.

Experiment [6] shares this target. Kind of experiment: SPR, pH 6.0. The procedure:
as §2
The source holds these as a separate data set.

Several values for one entry are separate records, joined by “and”; a condition that tells them apart may be missing. Identical values can stand only once.

T1 sequence (Q9H7M9 other isoform, or with tags, fused parts or gaps limits assumed): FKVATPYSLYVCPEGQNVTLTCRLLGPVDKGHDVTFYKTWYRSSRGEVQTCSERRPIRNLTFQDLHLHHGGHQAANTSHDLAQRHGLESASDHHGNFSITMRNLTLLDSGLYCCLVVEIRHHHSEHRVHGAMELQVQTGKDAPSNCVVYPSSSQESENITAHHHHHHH

B1: P1-061528 (41F11 NGS mut VK_A64G/R91A) (antibody, V domains shown)
VH: QVQLVESGGGLVKPGGSLRLSCAASGFTFSDYYMSWIRQAPGKGLEWVSYISNSGSPIYYADSVKGRFTISRDNAKNSLYLQMNSLRAEDTAVYYCARDLPGWYFDLWGRGTLVTVSS
VL: EIVLTQSPATLSLSPGERATLSCRASQSVSSYLAWYQQKPGQAPRLLIYDASNRATGIPARFSGSGSGTDFTLTISSLEPEDFAVYYCQQANNWPRTFGQGTKVEIK
notes: also called P1-061528-2
Usually Kd stands for the equilibrium constant for the complex coming apart. Usually koff stands for a measure of how fast the partners let go of each other. A high value points to a short-lived complex. For orientation: kon means a measure of how fast the partners come together. A lower kon goes with slower complex formation. Regarding B1, in experiment [1], the “KD ratio (pH 7.4/pH 6.0)” value stood at 7.88. In experiment [2], this molecule yielded a Kd of 30.4 nM, an off-rate constant (koff) of 0.00019 s⁻¹ and a kon of 6260 M⁻¹ s⁻¹. In experiment [3], the “pH 6.0/7.4 KD” value is 3.3 and the “pH 6.0/7.4 kd” value is 12. In experiment [4], this molecule showed a Kd of 3.86 nM, a koff of 0.00237 s⁻¹ and a kon of 616000 M⁻¹ s⁻¹. In experiment [5], the dissociation constant (Kd) worked out at 1.4 nM, the “kd improvement vs parent” value turned out to be 5.1 fold, the dissociation rate constant (koff) turned out to be 0.00017 s⁻¹ and the kon amounted to 120000 M⁻¹ s⁻¹. For the same molecule, in experiment [6], the Kd was determined as 4.7 nM, the “kd improvement vs parent” value is 51.4 fold, the koff is 0.0021 s⁻¹ and the on-rate constant (kon) was determined as 450000 M⁻¹ s⁻¹.

B2: P1-065064 (41F11_LC_Mutant: V29D/A64G/R91T) (antibody, V domains shown)
VH: QVQLVESGGGLVKPGGSLRLSCAASGFTFSDYYMSWIRQAPGKGLEWVSYISNSGSPIYYADSVKGRFTISRDNAKNSLYLQMNSLRAEDTAVYYCARDLPGWYFDLWGRGTLVTVSS
VL: EIVLTQSPATLSLSPGERATLSCRASQSDSSYLAWYQQKPGQAPRLLIYDASNRATGIPARFSGSGSGTDFTLTISSLEPEDFAVYYCQQTNNWPRTFGQGTKVEIK
notes: Same printed description as P1-063001 under another ID; also called P1-065064-1
Consider B2, for which, in experiment [3], the “pH 6.0/7.4 KD” value turned out to be 3 and the “pH 6.0/7.4 kd” value turned out to be 11.2. In experiment [5], the Kd stood at 0.36 nM, the “kd improvement vs parent” value is 7.4 fold, the koff was 0.00012 s⁻¹ and the kon worked out at 330000 M⁻¹ s⁻¹. Moreover, in experiment [6], the affinity, expressed as Kd, was 1.1 nM; the “kd improvement vs parent” value is 80.5 fold; the koff was 0.0013 s⁻¹; the kon was 1.3e+06 M⁻¹ s⁻¹.

B3: P1-064490 (41F11_VH_F27EY50EL96E) (antibody, V domains shown)
VH: QVQLVESGGGLVKPGGSLRLSCAASGETFSDYYMSWIRQAPGKGLEWVSEISNSGSPIYYADSVKGRFTISRDNAKNSLYLQMNSLRAEDTAVYYCARDEPGWYFDLWGRGTLVTVSS
VL: EIVLTQSPATLSLSPGERATLSCRASQSVSSYLAWYQQKPGQAPRLLIYDASNRATGIPARFSASGSGTDFTLTISSLEPEDFAVYYCQQRNNWPRTFGQGTKVEIK
notes: Kabat positions; also called P1-064490-1; P1-064490-2
Take B3: in experiment [2], the koff is 0.00266 s⁻¹ and 0.0023 s⁻¹. Further, in experiment [3], the “pH 6.0/7.4 KD” value turned out to be 0.3 and the “pH 6.0/7.4 kd” value was determined as 4. For the same molecule, in experiment [4], the Kd was 34.8 nM and 31.4 nM; the koff was 0.00726 s⁻¹ and 0.00818 s⁻¹; the on-rate constant (kon) was 209000 M⁻¹ s⁻¹ and 260000 M⁻¹ s⁻¹. Further, in experiment [5], the Kd came to 75 nM, the “kd improvement vs parent” value was found to be 0.3 fold, the koff came out at 0.0032 s⁻¹ and the on-rate constant (kon) worked out at 43000 M⁻¹ s⁻¹. For the same molecule, in experiment [6], the Kd worked out at 22 nM, the “kd improvement vs parent” value was determined as 8.2 fold, the koff was 0.013 s⁻¹ and the kon amounted to 600000 M⁻¹ s⁻¹.

B4: P1-063125 (41F11_HC_Mutant: T28P/Y50W/S55E/Y100E) (antibody, V domains shown)
VH: QVQLVESGGGLVKPGGSLRLSCAASGFPFSDYYMSWIRQAPGKGLEWVSWISNSGEPIYYADSVKGRFTISRDNAKNSLYLQMNSLRAEDTAVYYCARDLPGWEFDLWGRGTLVTVSS
VL: EIVLTQSPATLSLSPGERATLSCRASQSVSSYLAWYQQKPGQAPRLLIYDASNRATGIPARFSASGSGTDFTLTISSLEPEDFAVYYCQQRNNWPRTFGQGTKVEIK
notes: Kabat positions; also called P1-063125-5
As for B4, in experiment [2], the equilibrium dissociation constant (Kd) is 0.365 nM and 0.32 nM; the koff is 0.000178 s⁻¹ and 0.000141 s⁻¹; the kon was 488000 M⁻¹ s⁻¹ and 441000 M⁻¹ s⁻¹. In addition, in experiment [3], the “pH 6.0/7.4 KD” value stood at 0.9 and the “pH 6.0/7.4 kd” value came out at 3.9. In experiment [4], the dissociation constant Kd was 0.356 nM and 0.435 nM; the off-rate (koff) was 0.00124 s⁻¹ and 0.0012 s⁻¹; the kon is 3.47e+06 M⁻¹ s⁻¹ and 2.77e+06 M⁻¹ s⁻¹. In experiment [5], the Kd was found to be 0.27 nM, the “kd improvement vs parent” value was determined as 4.3 fold, the koff was determined as 0.0002 s⁻¹ and the kon amounted to 770000 M⁻¹ s⁻¹. Also, in experiment [6], binding was characterised by a dissociation constant (Kd) of 0.25 nM, the “kd improvement vs parent” value worked out at 136 fold, the koff stood at 0.00079 s⁻¹ and the kon turned out to be 3.1e+06 M⁻¹ s⁻¹.

B5: P1-063153 (41F11_HC_mutant: D31E/Y50W/S55E/Y100E) (antibody, V domains shown)
VH: QVQLVESGGGLVKPGGSLRLSCAASGFTFSEYYMSWIRQAPGKGLEWVSWISNSGEPIYYADSVKGRFTISRDNAKNSLYLQMNSLRAEDTAVYYCARDLPGWEFDLWGRGTLVTVSS
VL: EIVLTQSPATLSLSPGERATLSCRASQSVSSYLAWYQQKPGQAPRLLIYDASNRATGIPARFSASGSGTDFTLTISSLEPEDFAVYYCQQRNNWPRTFGQGTKVEIK
notes: Kabat positions; also called P1-063153-5
Turning to B5, in experiment [2], the Kd was 0.101 nM and 0.0675 nM; the koff is 6.9e-05 s⁻¹ and 4.05e-05 s⁻¹; the kon was 685000 M⁻¹ s⁻¹ and 600000 M⁻¹ s⁻¹. Besides, in experiment [3], the “pH 6.0/7.4 KD” value worked out at 0.8 and the “pH 6.0/7.4 kd” value was 3.9. Moreover, in experiment [4], the Kd was 0.139 nM and 0.223 nM; the koff was 0.00114 s⁻¹ and 0.000909 s⁻¹; the kon is 8.19e+06 M⁻¹ s⁻¹ and 4.07e+06 M⁻¹ s⁻¹. In addition, in experiment [5], the Kd came out at 0.15 nM, the “kd improvement vs parent” value was 7.4 fold, the koff amounted to 0.00012 s⁻¹ and the kon was found to be 780000 M⁻¹ s⁻¹. In addition, in experiment [6], the Kd came to 0.13 nM, the “kd improvement vs parent” value was 233 fold, the koff came to 0.00046 s⁻¹ and the kon stood at 3.6e+06 M⁻¹ s⁻¹.

B6: P1-063001 (41F11_LC_Mutant: V29D/A64G/R91T) (antibody, V domains shown)
VH: QVQLVESGGGLVKPGGSLRLSCAASGFTFSDYYMSWIRQAPGKGLEWVSYISNSGSPIYYADSVKGRFTISRDNAKNSLYLQMNSLRAEDTAVYYCARDLPGWYFDLWGRGTLVTVSS
VL: EIVLTQSPATLSLSPGERATLSCRASQSDSSYLAWYQQKPGQAPRLLIYDASNRATGIPARFSGSGSGTDFTLTISSLEPEDFAVYYCQQTNNWPRTFGQGTKVEIK
notes: also called P1-063001-5; P1-063001-6
As to B6, in experiment [2], the Kd is 0.665 nM and 0.737 nM; the koff was 0.00013 s⁻¹ and 0.00012 s⁻¹; the kon is 195000 M⁻¹ s⁻¹ and 163000 M⁻¹ s⁻¹. Also, in experiment [3], the “pH 6.0/7.4 KD” value amounted to 2.7 and the “pH 6.0/7.4 kd” value amounted to 10.2. Also, in experiment [4], the Kd was 0.644 nM and 0.751 nM; the koff is 0.00168 s⁻¹ and 0.00171 s⁻¹; the kon was 2.61e+06 M⁻¹ s⁻¹ and 2.28e+06 M⁻¹ s⁻¹. Further, in experiment [5], the Kd was determined as 0.38 nM, the “kd improvement vs parent” value amounted to 6.8 fold, the koff worked out at 0.00013 s⁻¹ and the kon turned out to be 340000 M⁻¹ s⁻¹. Besides, in experiment [6], the Kd was determined as 1 nM, the “kd improvement vs parent” value came out at 81.7 fold, the koff was 0.0013 s⁻¹ and the association rate constant (kon) was 1.3e+06 M⁻¹ s⁻¹.
